{"source": "patent US20250034253A1", "about": "(AKESO BIOPHARMA, published 2025)", "target": "T1, human TIGIT-mFc (human; mouse, UniProt Q495A1 22-141, limits assumed)", "T1 construct": "also called antigen TIGIT-mFc; TIGIT-mnFc", "T1 sequence (Q495A1 other isoform, or with tags, fused parts or gaps limits assumed)": "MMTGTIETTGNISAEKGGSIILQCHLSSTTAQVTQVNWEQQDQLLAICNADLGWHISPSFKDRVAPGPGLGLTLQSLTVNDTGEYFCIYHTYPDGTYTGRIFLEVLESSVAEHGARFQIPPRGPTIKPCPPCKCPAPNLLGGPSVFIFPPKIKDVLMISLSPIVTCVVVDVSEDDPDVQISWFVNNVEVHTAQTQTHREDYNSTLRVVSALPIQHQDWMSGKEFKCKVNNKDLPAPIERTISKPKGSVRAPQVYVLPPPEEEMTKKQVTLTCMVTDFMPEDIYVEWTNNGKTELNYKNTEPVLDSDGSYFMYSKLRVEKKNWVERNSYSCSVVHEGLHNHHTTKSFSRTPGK", "test": "BLI (Fortebio), TIGIT-mFc on AMC sensor, 37 C, 1:1 fit", "experimental": "The sample dilution buffer was PBS (0.02% Tween-20, 0.1% BSA, pH 7.4). TIGIT-mFc was immobilized on an AMC sensor at a concentration of […] for 50 s, and the sensor was equilibrated in the buffer for 60 s. The TIGIT-mFc immobilized on the sensor was allowed to bind to the antibody at concentrations of 0.06-5 nM (three-fold dilutions) for 120 s, and the protein was dissociated in the buffer for 300 s. The sensor was regenerated in 10 mM glycine solution (pH=1.7). The detection temperature was 37° C., the detection frequency was 0.3 Hz, and the sample plate shaking rate was 1000 rpm. The data were analyzed by 1:1 model fitting to obtain affinity constants.", "data": [{"binder": "RG6058 (antibody, V domains shown) VH: EVQLQQSGPGLVKPSQTLSLTCAISGDSVSSNSAAWNWIRQSPSRGLEWLGKTYYRFKWYSDYAVSVKGRITINPDTSKNQFSLQLNSVTPEDTAVFYCTRESTTYDLLAGPFDYWGQGTLVTVSS VL: not shown", "values": [{"measurement": "Maximum signal height of analyte (nm)", "value": 0.16, "unit": "nm"}, {"measurement": "S E(kdis)", "value": "3.46e-05", "unit": "s⁻¹"}]}]}
